# Measurements from patent US20250215050A1.
# Assays:
# [1] = target: CHO host cell proteins (HCPs); assay: dynamic binding of CHO HCPs, residence time 1 min; summary
# [2] = target: CHO host cell proteins (HCPs); assay: dynamic binding of CHO HCPs, residence time 2 min; summary
# [3] = target: CHO host cell proteins (HCPs); assay: dynamic binding, CHO cell culture fluid; summary for G.1 and G.2 together
# [4] = target: CHO host cell proteins (HCPs); assay: static binding, null CHO-S cell culture fluid; summary for G.1 and G.2 together
# [5] = target: CHO host cell proteins (HCPs); assay: static binding of CHO HCPs; summary
# [6] = target: CHO host cell proteins (HCPs); assay: static binding on resin, Langmuir isotherm fit; non-competitive, null CHO-S harvest; average HCP MW of 40 kDa assumed
# [7] = target: CHO host cell proteins (HCPs); assay: static binding on resin, Langmuir fit; competitive, CHO HCPs with 1 mg/mL NISTmAb; HCP ELISA
# [8] = target: CHO host cell proteins (HCPs); assay: static binding on resin, Langmuir isotherm fit; non-competitive; average HCP MW of 40 kDa assumed (Table 1 prints 6.50)
# [9] = target: CHO host cell proteins (HCPs); assay: static binding on resin, competitive, CHO HCPs with 1 mg/mL NIST mAb
# [10] = target: CHO host cell proteins (HCPs); assay: static binding on resin, Langmuir isotherm fit; non-competitive, null CHO-S harvest
# [11] = target: NIST mAb; assay: static binding on resin, Langmuir isotherm fit; non-competitive, pure NISTmAb solution
# [12] = target: CHO host cell proteins (HCPs); assay: static binding on resin, Langmuir fit; competitive, CHO HCPs with 5 mg/mL NISTmAb; HCP ELISA
# [13] = target: CHO host cell proteins (HCPs); assay: static binding on resin, competitive, CHO HCPs with 5 mg/mL NIST mAb
# [14] = target: CHO host cell proteins (HCPs); assay: breakthrough curve, industrial CHO harvest (mAb 1.38 mg/mL, HCP 0.46 mg/mL), residence time 0.5 min
# [15] = target: CHO host cell proteins (HCPs); assay: breakthrough curve, industrial CHO harvest (mAb 1.38 mg/mL, HCP 0.46 mg/mL), residence time 2 min
# [16] = target: CHO host cell proteins (HCPs); assay: static binding on resin, competitive against non-competitive conditions
# [17] = target: CHO host cell proteins (HCPs); assay: breakthrough curve, industrial CHO harvest (mAb 1.38 mg/mL, HCP 0.46 mg/mL), residence time 5 min
# [18] = target: CHO host cell proteins (HCPs); assay: adsorption kinetics on resin (FIG. 8A), null CHO-S harvest; average HCP MW of 40 kDa assumed
# [19] = target: CHO host cell proteins (HCPs); assay: breakthrough curve, industrial CHO harvest (mAb 1.38 mg/mL, HCP 0.46 mg/mL), residence time 1 min
# [20] = target: NIST mAb; assay: adsorption kinetics on resin (FIG. 8A), pure NIST mAb in PBS pH 7.4
# [21] = target: non-Ig plasma proteins; assay: flow-through loading of diluted cryo-rich plasma, two-column process
# [22] = target: non-Ig plasma proteins; assay: flow-through loading of cryo-poor plasma diluted 10-fold, above 10 CVs
Kd [6],Kd [7],Qmax (static binding capacity) [7],"Qmax,HCPs [9]",Qmax (static binding capacity) [10],Kd [11],Qmax (static binding capacity) [11],Kd [12],Qmax (static binding capacity) [12],"Qmax,HCPs [13]",Substance,also measured
–,–,–,–,–,–,–,–,–,–,LigaGuard™,10% breakthrough capacity [1]: < 16 mg/mL; 10% breakthrough capacity [2]: < 22 mg/mL; DBC10% [3]: 16 to 22 mg/mL; Qmax (maximum binding capacity) (mg per mL of resin) [4]: 28 to 30; equilibrium capacity (mg per mL of resin) [5]: 30
6.5 µM,8.75 µM,18.8 mg/mL,13 mg/mL,21.8 mg/mL,14.2 µM,11.5 mg/mL,8.75 µM,15.6 mg/mL,10 mg per mL,first generation (G.1) LigaGuard™ resin,Kd [8]: 6.75 µM
3.25 µM,4.25 µM,23.1 mg/mL,18 mg per mL,24.5 mg/mL,28.3 µM,10.5 mg/mL,4.75 µM,22.4 mg/mL,16 mg per mL,second generation (G.2) LigaGuard™ resin,"DBC10% (dynamic binding capacity at 10% breakthrough) [14]: 14.3 mg/mL; DBC10% (dynamic binding capacity at 10% breakthrough) [15]: 16.2 mg/mL; decrease of Qmax,HCPs on adding 1 mg/mL mAb [16]: 25%; DBC10% (dynamic binding capacity at 10% breakthrough) [17]: 17.6 mg per mL; kon [18]: 39000 M⁻¹ s⁻¹; DBC10% (dynamic binding capacity at 10% breakthrough) [19]: 16.7 mg/mL; kon [20]: 8710 M⁻¹ s⁻¹"
–,–,–,–,–,–,–,–,–,–,"second-generation LigaGuard™ adsorbent (plasma work, Examples 5 and 6)",binding capacity (mg per mL of resin) [21]: 32; QPP at saturation [22]: 30 mg/mL
